Assay results published in patent US20230414781A1 (BLISS BIOPHARMACEUTICAL HANGZHOU, published 2023).

B1: 27B4H4L3 antibody (antibody, human IgG1, kappa)
heavy: EVQLVQSGAEVKKPGESLKISCKASGYTFTTYWIGWVRQMPGKGLEWMGIIYPGDGGSRYSPSFQGQVTISADKSISTAYLQWSSLKASDTAMYYCARGGNYISFPMYYWGQGTLVTVSSASTKGPSVFPLAPSSKSTSGGTAALGCLVKDYFPEPVTVSWNSGALTSGVHTFPAVLQSSGLYSLSSVVTVPSSSLGTQTYICNVNHKPSNTKVDKRVEPKSCDKTHTCPPCPAPELVGGPSVFLLPPKPKDTLMISRTPEVTCVVVDVSHEDPEVKFNWYVDGVEVHNAKTKPPEEQYNSTLRVVSVLTVLHQDWLNGKEYKCKVSNKALPAPIEKTISKAKGQPREPQVYTLPPSREEMTKNQVSLTCLVKGFYPSDIAVEWESNGQPENNYKTTPLVLDSDGSFFLYSKLTVDKSRWQQGNVFSCSVMHEALHNHYTQKSLSLSPGK
light: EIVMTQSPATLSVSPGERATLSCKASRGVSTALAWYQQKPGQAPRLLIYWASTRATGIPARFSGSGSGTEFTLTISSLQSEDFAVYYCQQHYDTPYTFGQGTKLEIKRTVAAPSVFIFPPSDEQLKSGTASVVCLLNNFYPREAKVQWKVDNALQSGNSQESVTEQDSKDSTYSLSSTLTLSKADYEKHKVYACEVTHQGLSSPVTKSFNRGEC
notes: also called 27B4H43L3
B2: 27B4H4L3-MMAE (antibody, human IgG1, kappa)
heavy: B1 heavy
light: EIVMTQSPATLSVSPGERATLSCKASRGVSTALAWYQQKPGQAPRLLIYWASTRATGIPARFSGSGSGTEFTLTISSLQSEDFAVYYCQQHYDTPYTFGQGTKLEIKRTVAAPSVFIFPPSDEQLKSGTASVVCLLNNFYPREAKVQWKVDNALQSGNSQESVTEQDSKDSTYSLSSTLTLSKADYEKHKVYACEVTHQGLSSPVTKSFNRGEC
modifications: may carry MC-Val-Cit-PAB-MMAE on an inter-chain disulfide cysteine; positions not given; MC-Val-Cit-PAB-MMAE drug-linker on cysteines of partially reduced inter-chain disulfide bonds; main peaks DAR2, DAR4, DAR6, minor DAR0 and DAR8; positions not given
notes: a mixture of DAR species; also called ADC made of 27B4H4L3 antibody

What was measured:
[1] = target: T1, B7-H3 on B7-H3-expressing cancer cells (UniProt Q5ZPR3 29-534, limits assumed); assay: FACS on HT-29 (colon) cells
T1 construct: whole, on cells; Endogenous expression on tumour cell lines; also called B7-H3 expressing cells; CD276
T1 sequence (looked up): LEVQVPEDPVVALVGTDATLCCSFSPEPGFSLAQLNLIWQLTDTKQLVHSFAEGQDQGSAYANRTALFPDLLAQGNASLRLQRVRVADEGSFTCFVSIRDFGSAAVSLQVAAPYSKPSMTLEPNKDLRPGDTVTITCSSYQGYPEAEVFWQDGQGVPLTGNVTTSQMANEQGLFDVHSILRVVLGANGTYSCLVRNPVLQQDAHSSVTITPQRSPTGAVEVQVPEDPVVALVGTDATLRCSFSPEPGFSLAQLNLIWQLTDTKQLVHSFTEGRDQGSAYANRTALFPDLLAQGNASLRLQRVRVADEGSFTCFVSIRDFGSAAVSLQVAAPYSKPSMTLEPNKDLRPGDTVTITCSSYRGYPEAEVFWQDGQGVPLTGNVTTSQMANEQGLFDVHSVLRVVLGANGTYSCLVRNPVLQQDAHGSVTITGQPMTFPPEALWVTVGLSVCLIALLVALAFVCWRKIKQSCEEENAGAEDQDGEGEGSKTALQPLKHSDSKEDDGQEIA
Protocol: (§1) Screening for B7-H3-expressing cells were performed using FACS with 27B4H4L3 antibody and MFI of 27B4H4L3 to those cells shown in Table 2. FACS assay was also used to exam and compare the binding capabilities of the 27B4H4L3 antibody, BH73 antibody, 27B4H4L3-MMAE and BH73-Eribulin to B7-H3-expressing cells. To perform the assay, target cells and samples were incubated at 4° C. for 1 h. After wash, samples and secondary antibody (goat pAb to human IgG (FITC) (Abcam, ab97224)) were incubated. FACS was performed on […] (BD, Accuri C6 Plus) and mean fluorescence intensity (MFI) was reported. Three cell lines (U87MG, BT-474 and HT-29) representing B7-H3 high- and low-expressing cells were used to compare binding capacities of different antibody constructs and ADCs.

[2] = target: T1, B7-H3 on B7-H3-expressing cancer cells; assay: FACS on BT-474 (breast) cells
Protocol: as §1

[3] = target: T1, B7-H3 on B7-H3-expressing cancer cells; assay: FACS on U87 (glioma) cells
Protocol: as §1

| Binder | MFI [1] [MFI] | MFI [2] [MFI] | MFI [3] [MFI] |
| --- | --- | --- | --- |
| B1 | 69500 | 126000 | 314000 |
| B2 | 65300 | 126000 | 290000 |
